Measured values from paper PMC3597700.

Assays:
[1] = target: GST-RHA dsRBD1+2 (Homo sapiens, UniProt Q08211 1-264); assay: pull-down
[2] = target: GST-RHA dsRBD2 (Homo sapiens, UniProt Q08211 165-264); assay: pull-down
[3] = target: GST-RHA dsRBD1 (Homo sapiens, UniProt Q08211 1-91); assay: pull-down
[4] = target: T1, RHA dsRBD1 (Homo sapiens, UniProt Q08211 1-91); assay: crystal structure
[5] = target: T2, RHA dsRBD2 (Homo sapiens, UniProt Q08211 165-264); assay: crystal structure
[6] = target: RHA dsRBD1 N53A/K54A/K55A (Homo sapiens, UniProt Q08211 1-91, N53A;K54A;K55A); assay: ITC
RHA dsRBD1 N53A/K54A/K55A, sequence (Q08211 1-91 N53A/K54A/K55A): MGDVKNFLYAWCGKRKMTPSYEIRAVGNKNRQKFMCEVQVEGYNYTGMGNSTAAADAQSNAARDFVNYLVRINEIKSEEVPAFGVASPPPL

[7] = target: RHA dsRBD1 Y9A (Homo sapiens, UniProt Q08211 1-91, Y9A); assay: ITC
RHA dsRBD1 Y9A, sequence (Q08211 1-91 Y9A): as the sequence (Q08211 1-91 N53A/K54A/K55A) above, with Y9A, A53N, A54K, A55K counted along it

[8] = target: RHA dsRBD2 N234A/K235A/K236A (Homo sapiens, UniProt Q08211 165-264, N234A;K235A;K236A); assay: ITC
RHA dsRBD2 N234A/K235A/K236A, sequence (Q08211 165-264 N234A/K235A/K236A): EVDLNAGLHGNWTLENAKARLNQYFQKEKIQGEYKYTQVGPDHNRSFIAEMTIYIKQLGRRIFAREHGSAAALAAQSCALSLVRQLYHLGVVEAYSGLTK

[9] = target: RHA dsRBD1 N30A (Homo sapiens, UniProt Q08211 1-91, N30A); assay: ITC
RHA dsRBD1 N30A, sequence (Q08211 1-91 N30A): as the sequence (Q08211 1-91 N53A/K54A/K55A) above, with N30A, A53N, A54K, A55K counted along it

[10] = target: T1, RHA dsRBD1; assay: ITC
[11] = target: T2, RHA dsRBD2; assay: ITC
[12] = target: RHA dsRBD2 H207A (Homo sapiens, UniProt Q08211 165-264, H207A); assay: ITC
RHA dsRBD2 H207A, sequence (Q08211 165-264 H207A): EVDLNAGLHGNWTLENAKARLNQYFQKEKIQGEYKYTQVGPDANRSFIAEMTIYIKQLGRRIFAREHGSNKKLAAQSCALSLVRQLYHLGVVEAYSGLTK

[13] = target: RHA dsRBD2 K182A (Homo sapiens, UniProt Q08211 165-264, K182A); assay: ITC
RHA dsRBD2 K182A, sequence (Q08211 165-264 K182A): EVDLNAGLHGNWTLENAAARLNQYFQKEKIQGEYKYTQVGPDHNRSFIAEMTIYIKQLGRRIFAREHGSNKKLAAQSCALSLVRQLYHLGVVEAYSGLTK

[14] = target: RHA dsRBD1+2 (Homo sapiens, UniProt Q08211 1-264); assay: ITC
RHA dsRBD1+2, sequence (Q08211 1-264): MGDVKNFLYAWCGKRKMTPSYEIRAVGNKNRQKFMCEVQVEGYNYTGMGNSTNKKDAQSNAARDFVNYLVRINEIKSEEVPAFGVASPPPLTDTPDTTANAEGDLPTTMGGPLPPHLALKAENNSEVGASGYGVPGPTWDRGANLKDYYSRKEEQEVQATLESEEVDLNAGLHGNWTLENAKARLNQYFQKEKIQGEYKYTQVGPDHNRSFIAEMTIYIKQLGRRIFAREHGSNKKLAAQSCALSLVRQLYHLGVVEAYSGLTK

T2 sequence (Q08211 165-264): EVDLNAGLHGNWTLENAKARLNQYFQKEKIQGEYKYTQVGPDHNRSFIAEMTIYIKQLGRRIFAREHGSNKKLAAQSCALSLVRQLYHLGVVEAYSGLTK
T1 sequence (Q08211 1-91): as the sequence (Q08211 1-91 N53A/K54A/K55A) above, with A53N, A54K, A55K counted along it
GST-RHA dsRBD2, sequence (Q08211 165-264): as the sequence (Q08211 165-264) above
GST-RHA dsRBD1, sequence (Q08211 1-91): as the sequence (Q08211 1-91 N53A/K54A/K55A) above, with A53N, A54K, A55K counted along it
GST-RHA dsRBD1+2, sequence (Q08211 1-264): as the sequence (Q08211 1-264) above

B1: 5'-biotinylated siRNA21 duplex (dsRNA)
RNA 1: AGACAGCAUUAUGCUGUCUUU
RNA 2: AGACAGCAUUAUGCUGUCUUU
binding result [1]: binds | binding result [2]: binds | binding result [3]: binds

B2: GC10 duplex (dsRNA)
RNA 1: GCGCGCGCGC
RNA 2: GCGCGCGCGC
binding result [4]: binds | binding result [5]: binds

B3: siRNA21 duplex (dsRNA)
RNA 1: AGACAGCAUUAUGCUGUCUUU
RNA 2: AGACAGCAUUAUGCUGUCUUU
modifications: 5' phosphate
binding result [6]: no binding | binding result [7]: no binding | binding result [8]: no binding | Kd [9]: 14.5 µM | Kd [10]: 5.93 µM | Kd [11]: 13.6 µM | Kd [12]: 291 µM | Kd [13]: 334 µM | Kd [14]: 0.106 µM
